Key:
[1] = target: T1, Wildtype human PAR2 expressed on cells (human, UniProt P55085 37-397); test: cell-based or functional assay
T1 sequence: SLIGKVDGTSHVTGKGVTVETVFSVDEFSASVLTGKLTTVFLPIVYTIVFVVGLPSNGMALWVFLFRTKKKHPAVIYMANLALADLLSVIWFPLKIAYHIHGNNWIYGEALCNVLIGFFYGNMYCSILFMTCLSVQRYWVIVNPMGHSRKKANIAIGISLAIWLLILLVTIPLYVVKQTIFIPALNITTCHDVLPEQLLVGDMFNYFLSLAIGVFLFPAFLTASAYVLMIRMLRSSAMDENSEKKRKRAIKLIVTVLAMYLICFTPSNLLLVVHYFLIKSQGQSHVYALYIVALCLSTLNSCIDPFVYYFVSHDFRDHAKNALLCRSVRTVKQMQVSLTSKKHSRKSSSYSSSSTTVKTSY

[2] = target: Cynomolgus PAR2 on BacMam-infected HEK293 cells (cynomolgus); test: cell-based or functional assay
Rhesus PAR2 on cells = Rhesus PAR2 on cells (rhesus (Macaca mulatta)); test: cell-based or functional assay
[3] = target: T2, Mouse PAR2 on Flp-In CHO cells (mouse, UniProt P55086 39-399); test: FACS titration on CHO mouse Par2 cells, RLU [continued) C]
T2 construct: whole, on cells
T2 sequence (looked up): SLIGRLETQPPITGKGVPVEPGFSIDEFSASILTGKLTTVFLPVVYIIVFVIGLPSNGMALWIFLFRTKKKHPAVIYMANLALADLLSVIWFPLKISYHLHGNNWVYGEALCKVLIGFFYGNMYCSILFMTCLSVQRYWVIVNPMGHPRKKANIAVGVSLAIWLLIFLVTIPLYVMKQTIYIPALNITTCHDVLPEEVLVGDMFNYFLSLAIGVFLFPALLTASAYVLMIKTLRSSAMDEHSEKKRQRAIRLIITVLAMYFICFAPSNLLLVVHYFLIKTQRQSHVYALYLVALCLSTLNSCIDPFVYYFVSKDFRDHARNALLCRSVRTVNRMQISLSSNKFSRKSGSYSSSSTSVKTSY
Source text: Binding events to cell surface expressed antigen were identified by flow cytometry using either crude E. coli lysates from the panning output or purified antibodies. High throughput primary screens of panning outputs from differential whole cell pannings (DWCP) were mainly performed on human wild type PAR2-expressing Flp-In CHO cells (Flp-In CHO_huPAR2), GNTI BacMam wild type PAR2 cells and GNTI BacMam truncated PAR2 StaR versus parental Flp-In CHO cells (PAR2 negative) or non-infected HEK293GNTI-cells. Candidates showing an elevated background binding to parental Flp-In CHO cells were ascribed as either non-specific or off-target binders. All steps were performed in FACS buffer including FCS and sodium azide to prevent potential receptor internalization. Cell suspensions were transferred into microtiter plates and antibody samples were added followed by subsequent incubation of plates at 4° C. Sample volume and cell-number were adjusted to the plate type used. Following incubation, cells were spun down and washed with FACS buffer. Fluorophore-conjugated secondary reagents were used for detection of bound antibodies. Plates were measured using the BD FACS Array or IntelliCyt HTFC/iQue System and data was analysed using FlowJo, ForeCyt or proprietary software tools (FIG. 3).

[4] = target: T3, V5His-huPAR2 on Flp-In CHO cells (human, UniProt P55085 37-397); test: IntelliCyt flow cytometry, titration of IgG1f_AEASS on Flp-In CHO_V5His_huPAR2 cells, S/BG
T3 sequence: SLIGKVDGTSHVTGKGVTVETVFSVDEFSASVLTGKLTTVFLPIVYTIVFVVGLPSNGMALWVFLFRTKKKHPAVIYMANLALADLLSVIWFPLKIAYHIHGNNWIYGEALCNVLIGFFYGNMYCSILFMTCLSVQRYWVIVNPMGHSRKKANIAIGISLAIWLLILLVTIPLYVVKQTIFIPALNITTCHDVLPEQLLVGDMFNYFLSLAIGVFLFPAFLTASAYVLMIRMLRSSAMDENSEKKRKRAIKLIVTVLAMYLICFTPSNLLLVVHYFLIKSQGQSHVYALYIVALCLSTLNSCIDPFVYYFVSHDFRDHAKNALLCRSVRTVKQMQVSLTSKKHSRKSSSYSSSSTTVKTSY
Method: (§1) To evaluate species cross-reactivity and/or unwanted binding to counter-targets simultaneously, screening in 384-well plate format was performed using the HTFC/iQue screening platform from IntelliCyt. The HTFC/iQue Screening System was also used for evaluation of binding to multiple target cell lines or evaluation of unwanted/non-specific binding in parallel, in other words multiplexing. Different cell populations could be distinguished by pre-labelling with distinct amounts of fluorescent dyes, such as Calcein or Cell-Tracker Green, establishing a unique signature of fluorescence intensity for each cell population, thereby producing a fluorescence coding system. The color-coded cell lines were then physically combined and mixed together with antibodies to be tested. Individual cell-lines could be identified via the fluorescence of the respective cell-line that had been pre-labelled. Crude bacterial cell lysates were combined with cells and incubated for 1 hour at room temperature in the dark, shaking gently. Fluorescence measurement was performed with the IntelliCyt HTFC/iQue device. In between incubation steps, no washing was required. Raw data were evaluated with the help of the ‘ForeCyt’ software. After data acquisition, the cell lines from each sample could be identified according to their fluorescence signature and individually evaluated for antibody binding. […]

[5] = target: T4, PAR2-3: P157: 1-377, glycosylated, pBacMamHisStrepII, full length (human, UniProt P55085 26-377); test: SPR Biacore; IgG captured on anti-human IgG, 100 nM PAR2 analyte; 1:1 model
T4 construct: detergent-solubilised analyte in SPR, or on infected cells in flow cytometry; also called FL-N PAR2 StaR; FL-N StaR; not shown: C-terminal StrepII and deca-histidine tags
T4 sequence: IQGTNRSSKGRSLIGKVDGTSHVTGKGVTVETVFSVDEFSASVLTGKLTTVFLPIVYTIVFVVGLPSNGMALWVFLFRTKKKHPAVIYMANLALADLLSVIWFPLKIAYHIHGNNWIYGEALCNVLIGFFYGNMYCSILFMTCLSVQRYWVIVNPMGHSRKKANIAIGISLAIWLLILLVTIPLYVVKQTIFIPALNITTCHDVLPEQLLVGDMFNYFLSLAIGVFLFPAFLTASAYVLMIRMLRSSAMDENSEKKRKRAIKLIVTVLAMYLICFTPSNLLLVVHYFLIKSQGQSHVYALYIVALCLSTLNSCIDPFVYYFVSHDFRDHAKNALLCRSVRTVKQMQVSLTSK
Method: The antibodies were captured on anti-human IgG chip surface followed by injection of 100 nM PAR2. The data were fitted to 1:1 interaction model except for clone ‘Y021160’ in which case heterogeneous ligand model was used and component with slow dissociation was used for comparison.
For three purified IgG1f_AEASS clones Y021171, Y022054 and Y022063 affinities to human PAR2-3 variant (P157: 1-377, glycosylated, pBacMamHisStrepII, full length) were determined by SPR immobilizing the IgG and probing with detergent (LMNG/CHS) solubilized FL-N PAR2 StaR. Affinities were 22 nM and 20 nM for Y022063 and Y021171, respectively.

Wildtype human PAR 1 = target: T5, Wildtype human PAR 1 (human, UniProt P25116 42-425); test: IntelliCyt flow cytometry, titration of IgG1f_AEASS, S/BG
T5 construct: BacMam-infected HEK293f cells in the IP-One assay
T5 sequence: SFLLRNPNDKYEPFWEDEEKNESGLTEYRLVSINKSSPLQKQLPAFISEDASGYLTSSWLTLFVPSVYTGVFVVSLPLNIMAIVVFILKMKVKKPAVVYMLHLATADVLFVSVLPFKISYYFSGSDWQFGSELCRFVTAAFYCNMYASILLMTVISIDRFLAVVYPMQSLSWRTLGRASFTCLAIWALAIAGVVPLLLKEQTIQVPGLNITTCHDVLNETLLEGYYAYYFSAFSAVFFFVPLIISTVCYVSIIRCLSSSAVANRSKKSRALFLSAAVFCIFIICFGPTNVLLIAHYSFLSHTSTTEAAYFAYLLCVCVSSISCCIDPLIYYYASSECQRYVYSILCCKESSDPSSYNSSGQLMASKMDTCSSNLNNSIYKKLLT
Method: as §1

[6] = target: T1, Wildtype human PAR2 expressed on cells; test: cell-based or functional assay; remark: listed apart in the source
[7] = target: T1, Wildtype human PAR2 expressed on cells; test: IntelliCyt flow cytometry, titration of IgG1f_AEASS on HEK Flp-In TRex 293_huPAR2 expression-induced cells, S/BG
Method: as §1

[8] = target: T1, Wildtype human PAR2 expressed on cells; test: flow cytometry on HEK293F-humanPAR2 (3.0E+06 cells/mL), S/BG [continued]
[9] = target: T2, Mouse PAR2 on Flp-In CHO cells; test: cell binding, flow cytometry/IntelliCyt
[10] = target: T4, PAR2-3: P157: 1-377, glycosylated, …; test: SPR Biacore T200; IgG captured on anti-human IgG, 250 nM PAR2 analyte; 1:1 model
Method: The assay of PAR2 interaction with anti-PAR2 antibodies was carried out using a Biacore T200 instrument (GE Healthcare). Anti-human IgG antibody (Human Antibody Capture Kit, GE Healthcare) was immobilised by amine coupling on a sensor chip CM3 (GE Healthcare) to a surface density of 3500 to 4500 resonance units (RU). Immobilisation was carried out at 25° C. in HBS-EP+ buffer (GE Healthcare). The buffer was then changed to 50 mM HEPES, pH 7.5, 150 mM NaCl, 0.02% LMNG, 0.002% CHS. Each cycle of the PAR2-antibody interaction assay consisted of antibody capture (100 nM antibody injected for 2 min at a flow rate of 5 μL/min), PAR2 injection (blank or 250 nM, with contact and dissociation times of 2 and 3 minutes, respectively, at a flow rate of 20 μl/minute), and chip surface regeneration (30 seconds at 20 μl/minute) using the regeneration solution from Human Antibody Capture Kit (GE Healthcare). […] Measurements between each experimental data set were within the acceptable margins for this methodology.
The antibodies were captured on anti-human IgG chip surface followed by injection of 250 nM PAR2. The data were fitted to 1:1 interaction model.

[11] = target: T6, Human PAR2 StaR incorporated into nanodiscs (construct not stated) (human, UniProt P55085 37-377, limits assumed); test: SPR Biacore; human PAR2 StaR incorporated into nanodiscs
T6 construct: also called nanodisc-embedded StaR
T6 sequence: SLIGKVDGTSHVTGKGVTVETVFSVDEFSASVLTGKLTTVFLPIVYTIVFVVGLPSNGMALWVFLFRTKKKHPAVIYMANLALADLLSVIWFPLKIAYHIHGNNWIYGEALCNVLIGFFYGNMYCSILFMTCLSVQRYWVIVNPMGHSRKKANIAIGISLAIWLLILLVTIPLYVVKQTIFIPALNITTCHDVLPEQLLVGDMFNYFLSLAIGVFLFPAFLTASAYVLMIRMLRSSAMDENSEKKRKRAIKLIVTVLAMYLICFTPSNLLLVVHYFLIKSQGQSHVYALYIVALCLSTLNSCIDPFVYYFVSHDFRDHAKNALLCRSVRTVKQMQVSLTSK

[12] = target: T1, Wildtype human PAR2 expressed on cells; test: cell-based or functional assay; remark: listed apart in the source
[13] = target: T1, Wildtype human PAR2 expressed on cells; test: cell-based or functional assay; remark: listed apart in the source

B1: Y022065 (antibody, human IgG1, lambda, V domains shown)
VH: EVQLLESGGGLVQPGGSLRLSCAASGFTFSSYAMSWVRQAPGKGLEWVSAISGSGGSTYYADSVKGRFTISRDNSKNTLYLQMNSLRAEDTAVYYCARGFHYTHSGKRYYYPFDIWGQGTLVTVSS
VL: QSALTQPASVSGSPGQSITISCTGTSSDVGSYNLVSWYQQHPGKAPKLMIYEGSKRPSGVSNRFSGSKSGNTASLTISGLQAEDEADYYCSQYATFIAFAVFGGGTKLTVLG
notes: also called clone Y022065; parental clone Y022065
IC50 (nM), SLIGKV agonist challenge, Human [1]: 264 nM
IC50 (nM), SLIGKV agonist challenge, Cyno [2]: > 2000 nM
IC50 (nM), SLIGKV agonist challenge, Rhesus (Rhesus PAR2 on cells): > 2000 nM
binding result [3]: no binding
EC50 (read off the curve) [4]: ~4 nM
Kd [5]: 5.3 nM
koff [5]: 0.00016 s⁻¹
kon [5]: 30000 M⁻¹ s⁻¹
binding result (Wildtype human PAR 1): no binding (tested: 200 nM)
% Max Inhibition AP, IP-One [6]: 43%
EC50 (read off the curve) [7]: ~7 nM

B2: Fab Y022877 (Fab, V domains shown)
VH: EVQLLESGGGLVQPGGSLRLSCAASGFTFSRYAMTWVRQAPGKGLEWVSTISGLGQEAYYAGSVKGRFTISRDNSKNTLYLQMNSLRAEDTAVYYCARGFHYTHSGKRYYYPFDIWGQGTLVTVSS
VL: QSALTQPASVSGSPGQSITISCTGTSSDVGSYNLVSWYQQHPGKAPKLMIYEGSKRPSGVSNRFSGSKSGNTASLTISGLQAEDEADYYCSQYATFIAFAVFGGGTKLTVLG
EC50 (read off the curve) [8]: ~10 nM

B3: Y021171 (antibody, V domains shown)
VH: EVQLVESGGGLVKPGGSLRLSCAASGFTFSSYSINWVRQAPGKGLEWVSSISSSSSYTYYAESVKGRFTISRDNAKNSLYLQMNSLRAEDTAVYYCARAASGFAIFDYWGQGTLVTVSS
VL: DIQMTQSPSSVSASVGDRVTITCRASQGISSWLAWYQQKPGKAPKLLIYAASSLQSGVPSRFSGSGSGTDFTLTISSLQPEDFATYYCQQTHYVPLTFGQGTKVEIKR
binding result [9]: no binding
Kd [10]: 20 nM
koff [10]: 0.011 s⁻¹
kon [10]: 530000 M⁻¹ s⁻¹
Kd [11]: 31 nM
koff [11]: 0.037 s⁻¹
kon [11]: 1.2e+06 M⁻¹ s⁻¹
% Max Inhibition, AP challenge, IP-One [12]: 163%
Kd [5]: 70 nM
koff [5]: 0.029 s⁻¹
kon [5]: 410000 M⁻¹ s⁻¹
% Max Inhibition, Bovine Trypsin challenge, IP-One [13]: 19%
% Max Inhibition AP, IP-One [6]: 32%

Reference: patent US20250313621A1 (NXERA PHARMA UK, published 2025)
